Results: a protein production outcome set (Wang et al. 2014)

Assay: label from the status in PepcDB records

Sequence	protein production
MFKTLEVKYMEDRVLDWAVYEKTAREMVAEGLVLLKNDNKALPLKQGETVSVFGRMQNHYYKSGTGSGGMVNVAKVVGILDALNECKDVNVNQKLAETYAAWDKEHPVELGLGWGQEPWSQAEMPVTEELVQEAAGESDSAIVIIARTAGEDKDNTLEKGAFMLTDIETDMLRLVRENFQKMVVLLNVGGLIDMSFLDTISPDACMYVWQGGMVGGYGVVDVLVGDVSPSGKLTDTIAYDIKDYPAYDNFGGEERNFYAEDIYVGYRYFETFAKDKVRYPFGYGLSYTDFKIGVKHASLDFEKGVANICVKVTNTGKRLGKEVVQVYGEMPQGRLGKPSRVLIDFAKTKELVPGLSDELKFEIPLDRMASFDDSGATGHRNCYVLEAGDYTIHVGNSIRNTTECLFFELAETVELQKLQEALAPYEKFDRMKPFCDENGRMLIEYEETPLVTVDMYDRREQELPEEIPVTGDKGITLLDVREGKATMDEFIAQFDDEDLACFVRGEGMGSSLVTAGTASAFAGVSPNLIAHKIPSVCCDDGPSGMRLDSGMKAFSLPNGTLCGCSFNKELNTRLYALLGLEMTANKVEVLLGPGMNIHRHPLNGRNFEYFSEDPYLTGSIATAQLEGLKSSGVSGTIKHFCGNNQEYHRHTMDSVISQRALREVYLKGFEIAVKSGYADSVMTTYGLVNGLYTAGSYDLNTTILRNEWGFTGVVMTDWWASINRRGMEPDANDFATMIQAQNDMYMCCPDGSKNMGGDNVLEALHDGRILRAELQRIAKNVCSFAMDTNAFKRLVGEPVEIEIINRPKQADDFSIDDVEYINVDRDILIDLTEKASTADTNYVIALDVEHPGEYDVSLRGSSTLEKLAQLPCTLFFNGFPVSNFTFNGTDGKDVVIRKEVKFYSRFNVLRLYVKSNGLDLKDIKFSFEKEF	failed
MRQHLSLFPFILFLLLAFSYVGCRTVRQTPKQSERYVVVLSLDGFRPDYTDRARTPALDRMAQEGLSGSLQPCFPSLTFPNHYSMATGLYPDHHGIVANEFVDSLLGIFRISDRKAVETPGFWGGEPVWNTAARQGIRTGVYFWVGSETAVNGNRPWRWKKFSSTVPFRDRADSVIAWLGLPEKERPRLLMWYIEEPDMIGHSQTPESPLTLAMVERLDSVVGYFRKRLDSLPIAAQTDFIIVSDHGMATYENEKCVNLSHYLPADSFLYMATGAFTHLYPKPSYTERAYEILRAIPHISVYRKGEVPKRLRCGTNPRLGELVVIPDIGSTVFFAINEDVRPGAAHGYDNQAPEMRALLRAVGPDFRPGSRVENLPNITIYPLICRLLGIEPAPNDADETLLNGLIRDKRP	failed
MTPQNTIARELLFLALLSTLWAASYTFIKIGVETIPPLTFIAARTLIAGLLLLVVIRLRGLRLPRDPATWRLFFVQACINSVLPFTLIAWAEQSIDAGLAVILNATTPIFTFLLTALVIRHETVSGRKLFGTIAGMTGVCLIIGVEALGGAGEAIWSQLAVLTAAFSYACAAIFSKNFKGLDPVMPAAGSLICGAVLLLPVSLIVDRPWTLSPSAASLTALVCLSVFSTALAFMIYFRLMQTLGSVGTTSQAYLRVPVGVAIGMVFLGEVPTSAMWVGLVCVIAGVLAMTLPSRRRPATQGG	failed
MNGFIPIIASIAISLPLLIFGSHSDVKKRSINSFTFLPIFILALAFYILDKDVVMSIVTILSTVAVFIKPNIYVYIVLPLIIIGIGFFDTINLLTILIVGMFLLTGFGELLFGIGDIKGIVSVVLLFSSIPRFNNYIPFSIVFVFFIAVASGGALLYFVVYARLNGLKLRGLNVLYDEHEYLRNTIKYQLKDTNSGKVMIYRVPFLVPILVSTVLSLIAQLIIYASIHT	failed
MATGQDRVVALVDMDCFFVQVEQRQNPHLRNKPCAVVQYKSWKGGGIIAVSYEARAFGVTRSMWADDAKKLCPDLLLAQVRESRGKANLTKYREASVEVMEIMSRFAVIERASIDEAYVDLTSAVQERLQKLQGQPISADLLPSTYIEGLPQGPTTAEETVQKEGMRKQGLFQWLDSLQIDNLTSPDLQLTVGAVIVEEMRAAIERETGFQCSAGISHNKVLAKLACGLNKPNRQTLVSHGSVPQLFSQMPIRKIRSLGGKLGASVIEILGIEYMGELTQFTESQLQSHFGEKNGSWLYAMCRGIEHDPVKPRQLPKTIGCSKNFPGKTALATR	failed
MEQPYVYAYPQGSGPSGAPTPQAGGVVVDPKYCAPYPIDMAIVRKMMSLTDGNFVITDVNGNLLFKVKEPVFGLHDKRVLLDGSGTPVVTLREKMVSMHDRWQVFRGGSTDQRDLLYTVKRSSMLQLKTKLDVFLGHNKDEKRCDFRVKGSWLERSCVVYAGESDAIVAQMHRKHTVQSVFLGKDNFSVTVYPNVDYAFIASLVVILDDVNREDRAA	not failed
MSPEGAERYDRNCDHQFQKGHVLIEMMGIKKGDFVLDVGCGTGRQALNVAGIIGPAGKLTGIDPSSYRIELARKKFEGDSSGNVRFLVRQAENLQDIPDNSINHAYFCSSFHWVDDKKTALNEIFRVLRPGGKVGMTTLDRNSPNTMKALIDPILAKFGIERRHEWHRGMKKVTAPELHDLLSGAGFTSISIEPRAVPRKYNSPEEFLQHPEEKDSSRGILRDISNETLEKLRQEITEEFRKAQTPEDIGFGNITLFAIATKAQEGLEHHHHHH	failed
MEHDERTHVPVELRAAGVVLLNERGDILLVQEKGIPGHPEKAGLWHIPSGAVEDGENPQDAAVREACEETGLRVRPVKFLGAYLGRFPDGVLILRHVWLAEPEPGQTLAPAFTDEIAEASFVSREDFAQLYAAGQIRMYQTKLFYADALREKGFPALPV	not failed
MGALLPRGQASRPRTRHGRSPQNDRRQEARDVTGRHLAMVQRPGKMARWVLCCECLRRPMDLTLRLATALLTASLLLPLRPAQAQLAGHGGPVRAIAVSSDGKTVLSGSFDTAAIRWSLATESAEQVLRFHSGAVNAAAFLGDGRMATAGADGQIAIWTAGGLQPDQVLEGHTGPIVGLVVSPDTSKLASASWDHTVRISSLSDGGTRVLQGHSQSVNGVAFAPDGKSLVSVGYDLTVRIWPLAGGSPEIVVMPAPLNAVAISPDGEIVTGAADGKLRMMTADGKENGEVMAGARPIVALAISQDGALIATGAIDGTVAIVDRKARSVMRTLAGLGAPVWSVAFLPDGATLLTGGADGKIRRWNALTGAAIGSNVLGTPADPLAAYVGDHGAEMFRACVACHTLSENEVQRAGPTLAGLFGRKIASLPGYRFTDALKAMDIVWTPETVSKLFEIGPNAYTPGTKMPEQRIGSAEDRRALTDFLARATSK	failed
KPKDIKYVVEESKFKDLREILEFMLKDAVQKLDMFLDMLNYSKPKVDVGDEVIEIKKDNVIEALKLFKDEYEVSKKHIPVPVYTYLIKRNILFLNPIEGILKPQSYLVWNAIKRLL	failed
MASDPITTQEFSPRQNAVLDQALRLLVEGGEKALTTSGLARAANCSKESLYKWFGDRDGLLAAMITFQQSKVRTFEKAGDRVSAPQLADHLEVFAHDLLDVLAGDVSLALNRLAIGQASRDGSKLGDLLLERGRRQIDRRARGLIEAGRRSGYLRFDDAEEAYRSFYGLIVSDLHVRMLLGEAPDKDFSARAKKAVVAFLTLYGTEKVHSELGGKVA	not failed
FFKGAASSVLELTEAELVTAEAVRSVWQRILPKVLEVEDSTDFFKSGAASVDVVRLVEEVKELCDGLELENEDVYMASTFGDFIQLLVRKLRGDDEE	not failed
MTDPEKLTALKKAYAETILNTAKEAAARVMITERKARGYQQELASVRDEALRACLRLKQIYDSKVKEAEMISLQKQQKIEELEAQLGEAEDIVGELRTELRESRYLLEKLANGCQTNLSKEEKAPNEAVSLEVREDSSNHERSVVASVIKPHMSDRDLSINRCSYKENKDPCLYTLPSILSRCREAEVVERNTINGDCADVESLTEARKEEAKENDIELSTTPLSPSEKQCIKFSYKRKHNKDGSNSPEGGGSSSQDDDDDDESRSRRHKTGEKDNAYLDSFTSTEPSRDSRRVAQVARQVSESR	failed
MLPKRQLFLDRLNQALAWSQFSGVPGALLLIDLGLPAHLDGSPSLSPDAEENLEIIANRLQAYVRPHETLAHLNHHQFGLLLLDPDVQLRAEERAHGIQTLIRDRLAGFEGGAHIGIVPLTPETPATVLLQAAEAAAMTARSQQQGHLSLEASLEHHHHHH	not failed
MAVSKMEKMTIIAAAEKEAAILQAIQGLQIVEVKRIFHSPEEEQALKSQYSFLQAEQSTEQLRKYETMLQQLQELLLFLTRSSGKGLKIKRKVYTLEELEQTFDEETLQSYLTELKNIQESLKQIQTDRQGLEAEEELLGRWQYLDVLPHKQQLKSSYVVHGSINLANKASFLSALSQWPTVYFEEIYQSMHHSYFTLVYLKEHQQSVTELLNQYSFEPLQYRYDVPPKEAYQQVKERYEILQKEEKALKQQLASYHDFYETFCLAEEVLLAVIQREQARQHLLNASSFFILQTWIPVEEKAEILTAIEEKVPKDEIALTFENPTKAEIETDIPVKLANNKLVQPFEMLTEMYSLPKYEEVDPTPAMMPFYLVFFGMMVADIGYGLLMLLLSIIALKAFVLPRGMKRFADFFLILSFPTIIWGFIYGSFFGAALPPIMFGIKSPFPILSTTEDVNTILILSVIFGFIQLVVGLMINGIQLSKQKRYLDSINESYAWLGILFGLALLVVGKLVVKNEGLFTAGAILASLSAIAIIVIPMIQSKAKLKGLAKGLYGLYGVTGYVGDLVSYTRLMALGIAGGSIASAFNMLVEFMPPVARFSVGILLLIVLHALNIFLSLLGAYVHGARLQYVEFFGKFYTGGGRAFNPLKTKEKYVNVEKK	failed
MELDDAYANGAYIEGAADYPPRWAASAEDFRNSLQDRARLNLSYGEGDRHKFDLFLPEGTPVGLFVFVHGGYWMAFDKSSWSHLAVGALSKGWAVAMPSYELCPEVRISEITQQISQAVTAAAKEIDGPIVLAGHSAGGHLVARMLDPEVLPEAVGARIRNVVPISPLSDLRPLLRTSMNEKFKMDADAAIAESPVEMQNRYDAKVTVWVGGAERPAFLDQAIWLVEAWDADHVIAFEKHHFNVIEPLADPESDLVAVITA	not failed
LKLTKIIVSEAGASVYSASEIAANEFPDLDVSLRGAVSIARRLQDPLAELVKIEAKSIGVGQYQHDVNQAKLARCLDGVVEDCVNAVGVDINTASAALLSHISGLNDTLAKNIVQFRDEHGAFTNRNQLKNIHRMGEKAFQQAAGFLRIMNGDNALDASCVHPEAYPLVEKIISDKKVSIKEIIGNRELLQSINAEQYVDENFG	failed
MEQNNIKEQLISFFNQACSTHQERLDFICSTRESDTFSSVDVPLEPIKNIIEITKDENQQIEITKIAVNNIKTLSSVGATGQYMASFFSTNSEPAIIFCVIYFLYHFGFLKDNNKKQIIKKAYETIADNIADYLNEN	not failed
MNVDVLIGEILTLSMMAFALGMDAFSVGLGMGMAKLKRNQVFQIGVIIGLFHVIMPLGGMIAGQFLSGALGALAGYIGGALLLVLGIQMIVASFNKSGEQIISPHGFGLFVFAVGVSLDSFSVGLSLGLYGTKPILTIFLFGLFSMVLTWAGLLLGKKVQTWLGAYSEALGGAILLSFGLKLLLPI	failed
MDGTPGHNAINRLQLVATLAEREVMRYTPAGVPIVNCLLSYSGQAMEAQAARQVEFSIEALGAGKMASVLDRIAPGTVLECVGFLARKHRSSKALVFHISGCNVFVKDLEHHHHHH	failed
MAPSHDRGRVDRALARVSHAFSILIAALTFALPGVATAGDVPTFAVDPAWPKPLPNNWILGQVGGITVDWQGHIWVIHRPRSLTDDEKGASLNPPRSKCCVSAPPVLEFDTDGNLLRSWGGLGEGYEWVGREHGIEVDERGFVWVGGNADNDNAILKFTLDGKFVAQIGKIAPSLGSNDTTQLGKPAETAIDKAANEIYVADGYGNRRVIVFDATTLAYKRHWGAYGNKPNDDKQGPYDPKAPVAQQFGNPVHCVKLANDGLVYVCDRINNRIQVFRKDGTFVKEFFFEKNTLGNGAVWDIAIWPDPKQTWLLSADGENNEIRVIRRDDGSVVGSFGRNGRNAGQFHWVHAMAIDAKGNVYTAEVDTGKRIQKFKLTSDALK	failed
